T1: active catalytic domain of MMP 7 (UniProt P09237 95-267)
T1 construct: domain: catalytic domain
T1 sequence (looked up): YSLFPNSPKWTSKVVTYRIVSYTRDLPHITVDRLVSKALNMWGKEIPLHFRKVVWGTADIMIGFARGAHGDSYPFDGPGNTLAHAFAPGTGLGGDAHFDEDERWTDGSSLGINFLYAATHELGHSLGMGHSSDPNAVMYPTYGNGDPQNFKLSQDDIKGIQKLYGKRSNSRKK

T2: active catalytic domain of MMP 1 (UniProt P03956 100-269, limits assumed)
T2 construct: domain: catalytic domain
T2 sequence (looked up): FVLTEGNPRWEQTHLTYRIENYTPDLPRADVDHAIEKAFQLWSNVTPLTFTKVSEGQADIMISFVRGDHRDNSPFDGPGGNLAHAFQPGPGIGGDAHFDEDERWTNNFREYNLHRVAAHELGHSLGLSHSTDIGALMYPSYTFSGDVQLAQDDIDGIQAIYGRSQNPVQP

B1: MMP-12 P1-1 (VHH)
VHH: QVQLQESGGGLVQPGGSLRLSCVASGFTFSDYPMAWVRQAPGKGLEWISVINSGGVNTSYAASVKGRFTISRDNAKNTLFLQMNSLKPEDTAVYYCAKYSLKNEQYWRGQGTQVTVSS
notes: Tested as periplasmic extract, detected through its c-myc tag (pAX004: c-myc and hexahistidine tags)
B2: MMP-12 P1-26 (VHH)
VHH: QVQLQESGGGLVRAGGSLRLSCVASGRTLSKYRMGWFRQFPGKERELVAEIEWKSSSTWYRDSVKGRFTISRDNAKNTVYLRMNSLKPEDTAVYYCAAATLGEPLVKYTYWGQGTQVTVSS
notes: Tested as periplasmic extract, detected through its c-myc tag
B3: MMP-12 P1-41 (VHH)
VHH: QVQLQDSGGGLVRTGDSLRLSCVVFGGTISTYAMGWFRRAPGKEREFVAAIDASGGFTEYADSVRGRFRIARDNPLSAVYLQMNSLKPEDTAFYYCAADKDRDTVVRFTTTPNEYDYWGQGTQVTVSS
notes: as for B2
B4: MMP-12 P1-44 (VHH)
VHH: QVQLQESGGGLVQPGGSLRLSCAASGFTFNNHWLYWVRQAQGKGLEWVSAINPGGSTVYLDSVKGRFTISRGNTKNTLYLQMNSLKSEDTAVYYCTKAMAWATDWDEYDLWGQGTQVTVSS
notes: as for B2
B5: MMP-12 P5-29 (VHH)
VHH: QVQLQESGGGLVQAGGSLRLSCAASGRTFTVYTTGWFRQAPGKEREFVAAIDWSGSSTYYTDSVKGRFTISRDNTKNTVYLQMNSLKPEDTAVYYCAARDAIVGVTDTSGYRYWGQGTQVTVSS
notes: Selected on active MMP-12 on nitrocellulose (Hybond-C); also called clone P5-29
B6: VHH#3E-His tag (VHH)
VHH: QVQLQESGGGLVQPGGSLRLSCAASGRTFSDHSGYTYTIGWFRQAPKEREFVARIYWSSGNTYYADSVKGRFAISRDIAKNTVDLTMNNLEPEDTAVYYCAARDGIPTSRSVESYNYWGQGTQVTVSS
notes: protein was purified by IMAC; also called TNF3E; VHH TNF3E
B7: EGFR-B11 (VHH)
VHH: QVQLQDSGGGLVQAGGSLRLSCAASRFSSAQYAIGWFRQAPGKEREGVSYITFSGGPTGYADSVKGRFTVSRDNAKNTVYLQMNSLKPEDTAVYYCAARPYTRPGSMWVSSLYDNWGQGTQVTVSS
notes: From the internalization selection
B8: EGFR-F11 (VHH)
VHH: QVQLQESGGRLVQAGGSLRLSCAASEHTFRGYAIGWFRQAPGKEREFVSSITYDGTLTNYADSVTGRFTISRDNAKNTVYLQMNSLKPEDTAVYVCAAGYSYRYTTLNQYDSWGQGTQVTVSS
notes: From the internalization selection; also called clone EGFR-F11

These binders were tested against T3, human MMP-12 catalytic domain (human, UniProt P39900 106-263) (assay: ELISA / dot blot on immobilized human MMP-12 catalytic domain, periplasmic extract, anti-c-myc detection).
T3 construct: domain: catalytic domain; Sources: Prof; H. Tschesche (Universität Bielefeld) and Biomol Research laboratories Inc (SE 138-9090); also called human macrophage elastase
Protocol: To examine the clones selected using solid phase coated human MMP-12, plates were coated with human MMP-12 catalytic domain at a concentration of 1 μg/ml overnight at 4° C. Plates were washed 5 times with PBS/0.05% Tween-20. Wells were blocked with 1% skimmed milk for 2 hrs at room temperature. Periplasmic extracts (100 μl) were applied to the wells and incubated for 1 hour at room temperature. Plates were washed 5 times with PBS/0.05% Tween-20. Detection was performed using anti-c-myc antibody, followed by anti-mouse-HRP and ABTS/H₂O₂ as substrate. Plates were read at 405 nm after 30 minutes incubation at room temperature.
To examine the clones selected using membrane immobilized human MMP-12, 50 ng human MMP-12 catalytic domain samples were spotted on PVDF membrane as described in the manufacturers guidelines. 50 ng lysozyme was spotted as a negative control. The membranes were blocked with skimmed milk overnight at 4° C., washed 5 times with PBS and transferred to 1.5 ml tubes. Periplasmic extracts (100 μl) were tenfold diluted in 1% skimmed milk and 1 ml was applied per membrane (2 cm²) and rotated for 1 hour at room temperature. Membranes were washed 5 times with PBS/0.05% Tween-20. Detection was performed using anti-c-myc antibody, followed by anti-mouse-HRP and DAP as substrate. Membranes were incubated with substrate at room temperature until clear spots were visible.
B1: binds. B2: binds. B3: binds. B4: binds. B5: binds.

Each binder was assayed against T4, human TNF-alpha (human, UniProt P01375 77-233) (assay: competition ELISA: VHH preincubated with biotinylated TNF-alpha, binding to immobilized receptor extracellular domain).
T4 construct: also called TNFα; biotinylated TNF-alpha
Protocol: 100 μl of this mixture was transferred to a well of a microtiter plate, in which the extracellular domain of the receptor was immobilized.
B6: binds.

These binders were tested against T5, human EGFR expressed on cells (Her-14 mouse fibroblasts; A431 carcinoma cells) (human, UniProt P00533 25-1210) (assay: phage ELISA on cells).
T5 construct: whole, on cells; Parental NIH3T3 clone 2.2 (3T3) cells served as EGFR-negative control; also called EGFR^+ cells
B7: binds. B8: binds.

Each binder was assayed against T6, active catalytic domain of MMP 9 (UniProt P14780 107-444, limits assumed) (assay: dot blot, 50 ng catalytic domain on Hybond C-extra, periplasmic extract, anti-c-myc detection).
T6 construct: domain: catalytic domain
Protocol: (§1) In order to check for non specific binding to other MMPs a similar approach was followed in which 50 ng of active catalytic domain of MMP 1, 2, 3, 7, 9 and 13 (all from Biomol Research laboratories Inc) was immobilized on Hybond C-extra. The membranes were blocked with skimmed milk overnight at 4° C., washed 5 times with PBS and transferred to 1.5 ml tubes. Periplasmic extracts (100 μl) were tenfold diluted in 1% skimmed milk and 1 ml was applied per membrane (2 cm²) and rotated for 1 hour at room temperature. Membranes were washed 5 times with PBS/0.05% Tween-20. Detection was performed using anti-c-myc antibody, followed by anti-mouse-HRP and DAP as substrate. Membranes were incubated with substrate at room temperature until clear spots were visible.
B1: no binding. B2: no binding. B3: no binding. B4: no binding.

These binders were tested against T7, active catalytic domain of MMP 2 (UniProt P08253 110-452, limits assumed) in the same assay as above.
T7 construct: domain: catalytic domain
Protocol: as §1
B1: no binding. B2: no binding. B3: no binding. B4: no binding.

The binders below were run against T8, active catalytic domain of MMP 3 (UniProt P08254 100-272, limits assumed) in the same assay as above.
T8 construct: domain: catalytic domain
Protocol: as §1
B1: no binding. B2: no binding. B3: no binding. B4: no binding.

The binders below were run against T1, active catalytic domain of MMP 7 in the same assay as above.
Protocol: as §1
B1: no binding. B2: no binding. B3: no binding. B4: no binding.

These binders were tested against active catalytic domain of MMP 13 (UniProt P45452 104-274) in the same assay as above.
Protocol: as §1
B1: no binding. B2: no binding. B3: no binding. B4: no binding.

The binders below were run against T2, active catalytic domain of MMP 1 in the same assay as above.
Protocol: as §1
B1: no binding. B2: no binding. B3: no binding. B4: no binding.

— patent US20110123529A1 (published 2011)
